# Measured values taken from PMC4355236.
# T1: POT1 (Homo sapiens, UniProt Q9NUX5 1-634)
# T1 sequence: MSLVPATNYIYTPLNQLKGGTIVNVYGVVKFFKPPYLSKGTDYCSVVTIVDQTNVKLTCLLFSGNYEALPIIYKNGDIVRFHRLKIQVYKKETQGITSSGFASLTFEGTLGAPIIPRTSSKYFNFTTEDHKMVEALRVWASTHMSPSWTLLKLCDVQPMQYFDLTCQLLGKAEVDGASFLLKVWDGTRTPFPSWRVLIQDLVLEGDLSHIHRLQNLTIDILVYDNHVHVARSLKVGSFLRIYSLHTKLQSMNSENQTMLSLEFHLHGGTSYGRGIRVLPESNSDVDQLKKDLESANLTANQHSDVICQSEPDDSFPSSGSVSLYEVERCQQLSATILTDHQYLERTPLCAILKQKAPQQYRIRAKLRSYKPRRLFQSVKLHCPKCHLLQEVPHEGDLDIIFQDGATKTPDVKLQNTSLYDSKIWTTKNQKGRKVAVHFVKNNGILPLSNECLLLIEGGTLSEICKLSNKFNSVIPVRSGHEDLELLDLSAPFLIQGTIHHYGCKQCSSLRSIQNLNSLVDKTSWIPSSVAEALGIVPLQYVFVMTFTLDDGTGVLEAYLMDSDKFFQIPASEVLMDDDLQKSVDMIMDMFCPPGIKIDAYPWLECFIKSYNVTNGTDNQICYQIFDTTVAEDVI
# Biological target: T1, POT1
# Assay: EMSA
binder,measurement,value
TTAGGGTTAGCGTTAGGGTT (ssDNA) [primer a5TT],Kd,50 nM
